Data as given in patent publication US20240238445A1, “INHIBITORS AND USES THEREOF” (NEURACLE SCIENCE CO., LTD., priority 2021, published 2024).
Ends that are not written are not given here.

B1: LRRC4 full-length ectodomain: full-length ectodomain of LRRC4 protein, amino acid residues 39-527 of SEQ ID NO: 1, conjugated to human Fc (protein)
chain: ASAGPQNCPSVCSCSNQFSKVVCTRRGLSEVPQGIPSNTRYLNLMENNIQMIQADTFRHLHHLEVLQLGRNSIRQIEVGAFNGLASLNTLELFDNWLTVIPSGAFEYLSKLRELWLRNNPIESIPSYAFNRVPSLMRLDLGELKKLEYISEGAFEGLFNLKYLNLGMCNIKDMPNLTPLVGLEELEMSGNHFPEIRPGSFHGLSSLKKLWVMNSQVSLIERNAFDGLASLVELNLAHNNLSSLPHDLFTPLRYLVELHLHHNPWNCDCDILWLAWWLREYIPTNSTCCGRCHAPMHMRGRYLVEVDQASFQCSAPFIMDAPRDLNISEGRMAELKCRTPPMSSVKWLLPNGTVLSHASRHPRISVLNDGTLNFSHVLLSDTGVYTCMVTNVAGNSNASAYLNVSTAELNTSNYSFFTTVTVETTEISPEDTTRKYKPVPTTSTGYQPAYTTSTTVLIQTTRVPKQVAVPATDTTDKMQTSLDEVMKTTK
modifications: conjugated to human Fc
B2: full-length LRRC4C protein: full-length ectodomain of LRRC4C protein, amino acids 45-527 of SEQ ID NO: 3, conjugated to human Fc (protein)
chain: QTCPSVCSCSNQFSKVICVRKNLREVPDGISTNTRLLNLHENQIQIIKVNSFKHLRHLEILQLSRNHIRTIEIGAFNGLANLNTLELFDNRLTTIPNGAFVYLSKLKELWLRNNPIESIPSYAFNRIPSLRRLDLGELKRLSYISEGAFEGLSNLRYLNLAMCNLREIPNLTPLIKLDELDLSGNHLSAIRPGSFQGLMHLQKLWMIQSQIQVIERNAFDNLQSLVEINLAHNNLTLLPHDLFTPLHHLERIHLHHNPWNCNCDILWLSWWIKDMAPSNTACCARCNTPPNLKGRYIGELDQNYFTCYAPVIVEPPADLNVTEGMAAELKCRASTSLTSVSWITPNGTVMTHGAYKVRIAVLSDGTLNFTNVTVQDTGMYTCMVSNSVGNTTASATLNVTAATTTPFSYFSTVTVETMEPSQDEARTTDNNVGPTPVVDWETTNVTTSLTPQSTRSTEKTFTIPVTDINSGIPGIDEVMKTTK
modifications: conjugated to human Fc

Assays:
[1] = biological target: hFc-fused hLRRC4B and FAM19A5 complex formation (Homo sapiens, UniProt Q7Z5A7); assay: Competitive inhibition assay (IC50), plate coated with LRRC4B(453-576, TT/TT)-hFc; assay type: binding; details: Table 14; LRRC4B(453-576, TT/TT)-hFc 100 nM coat; peptide 0.03-1000 nM; read-out: IC50 (nM), Inhibition on Complex Formulation between human LRRC4B protein and recombinant FAM19A5 protein (1 ng/mL)
Procedure: The in silico analysis provided in Example 9 highlighted that certain T12 and L13 double mutants might be important in improving the binding affinity of the polypeptides of the present disclosure to the FAM19A5 protein. Therefore, the ability of both the wild-type FB-21 peptide (which is the same as the FB-20 peptide described herein except that the FB-21 peptide additionally contains an alanine at the C-terminus) and several FB-21 mutants were tested for their inhibitor effect on hFc-fused hLRRC4B and FAM19A5 complex formation. Briefly, plate was coated with 100 nM of LRRC4B(453-576, TT/TT)-hFc and then 1 ng/ml of rFAM19A5 was incubated at 37° C. in the presence of increasing concentrations of the different FB-21 peptide fragments (0.03, 0.1, 0.3, 1, 3, 10, 30, 100, 300 and 1000 nM). The LRRC4B-bound FAM19A5 levels were measured using HRP-conjugated 1-65 antibody.

[2] = biological target: T1, FAM19A5 protein (Homo sapiens, UniProt Q7Z5A7); assay: competitive inhibition ELISA, 20 nM peptide, rFAM19A5 5 ng/mL; competitor: coated LRRC4B(36-576)-hFc
[3] = biological target: T1, FAM19A5 protein; assay: competitive inhibition ELISA, 20 nM peptide, rFAM19A5 1 ng/mL; competitor: coated LRRC4B(453-576)-hFc
[4] = biological target: T1, FAM19A5 protein; assay: ELISA binding of recombinant FAM19A5 to coated hFc-conjugated LRRC4 family ectodomains, fragments or synthetic peptides
Procedure: Next, to confirm the above co-immunoprecipitation results, an ELISA assay was used to measure the binding of the FAM19A5 protein to either the full-length ectodomain of members of LRRC4 protein family or various LRRC4B ectodomain protein fragments. Specifically, an ELISA plate was coated with one of the following LRRC4B ectodomain protein, which was conjugated to human Fc (100 nM/well): (1) full-length ectodomain of LRRC4 protein (amino acid residues 39-527 of SEQ ID NO: 1) (SEQ ID NO: 4); (2) full-length ectodomain of LRRC4B protein (amino acids 36-576 of SEQ ID NO: 2; i.e., construct #7 in Table 6) (SEQ ID NO: 5); (3) full-length ectodomain of LRRC4C protein (amino acids 45-527 of SEQ ID NO: 3) (SEQ ID NO: 6); (4) LRRC4B ectodomain fragment (amino acids 453-576 of SEQ ID NO: 2; i.e., construct #11 in Table 6) (SEQ ID NO: 7); (5) LRRC4B ectodomain fragment (amino acids 484-576 of SEQ ID NO: 2; i.e., construct #12 in Table 6) (SEQ ID NO: 8); (6) LRRC4B ectodomain fragment (amino acids 482-576 of SEQ ID NO: 2) (SEQ ID NO: 9); (7) LRRC4B ectodomain fragment (amino acids 482-497 of SEQ ID NO: 2) (SEQ ID NO: 10); and (8) LRRC4B ectodomain fragment (amino acids 498-576 of SEQ ID NO: 2; i.e., construct #13 in Table 6) (SEQ ID NO: 11). Then, recombinant FAM19A5 proteins (0.005, 0.01, 0.025, 0.05, 0.1, 0.25, 0.5, 1, 2.5, 5, and 10 nM) were added to the relevant wells, and the plates were incubated at 37° C. for 1 hour. Afterwards, the amount of LRRC4B-bound FAM19A5 protein was detected using HRP-conjugated anti-FAM19A5 (1-65) antibody.
As further confirmation, three synthetic polypeptides comprising amino acids 484-497 of SEQ ID NO: 2 (i.e., YTYFTTVTVETLET; SEQ ID NO: 65) were constructed: (1) FB-16 (GYTYFTTVTVETLETQ; SEQ ID NO: 17), (2) FB-20 ([…]; SEQ ID NO: 18), and (3) FB-28 ([…]; SEQ ID NO: 19). The peptides differed in their total length. The ability of these polypeptides to bind to recombinant FAM19A5 protein was assessed using an ELISA assay as described above.
Target sequence in this assay (Q7Z5A7 44-132): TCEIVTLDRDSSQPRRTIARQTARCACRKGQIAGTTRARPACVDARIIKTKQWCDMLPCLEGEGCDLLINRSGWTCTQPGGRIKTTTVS

Row | Molecule | Inhibition rate (%) [2] | Inhibition rate (%) [3] | also measured
1 | GYTYFTTVTVEIFETQPGEEA [FB-21 (I12F13)] |  |  | IC50 [1]: 9.9 nM
2 | GYTYFTTVTVEMRETQPGEEA [FB-21 (M12R13)] |  |  | IC50 [1]: 47.9 nM
3 | GYTYFTTVTVEPYETQPGEEA [FB-21 (P12Y13)] |  |  | IC50 [1]: 39 nM
4 | GYTYFTTVTVEHFETQPGEEA [FB-21 (H12F13)] |  |  | IC50 [1]: 9.8 nM
5 | GYTYFTTVTVEQRETQPGEEA [FB-21 (Q12R13)] |  |  | IC50 [1]: 39.9 nM
6 | KNYTYFTTVTVETNKETQ [FB-m11dC] | 65% | 30.4% | 
7 | KNTTVTVETNKETQ [FB-m7dN] | 2% | -1.8% | 
8 | KNYTYFTTVTVENKETQ [FB-m10dC] | 62% | 21.9% | 
9 | KNYTYFTTVNKETQ [FB-m7dC] | 4.4% | 0.4% | 
10 | B1 |  |  | EC50 ([4]; hFc-conjugated ectodomain coated 100 nM/well, FAM19A5 0.005-10 nM, 37° C. 1 hour): 0.48 nM
11 | B2 |  |  | binding to FAM19A5 protein (ELISA, in words) ([4]; coated 100 nM/well, FAM19A5 up to 10 nM): No saturation in binding was observed
12 | KNYTYFTTNKETQ [FB-m6dC] | 14.9% | 5.5% | 
13 | KNYFTTVTVETNKETQ [FB-m9dN] | 2.5% | -1.6% | 
14 | KNYTYFTTVTNKETQ [FB-m8dC] | 5.1% | -0.9% | 
15 | KNTYFTTVTVETNKETQ [FB-m10dN] | 7.7% | 0% | 
16 | KNYTYFTTVTVNKETQ [FB-m9dC] | 16.8% | 2.7% | 
17 | KNFTTVTVETNKETQ [FB-m8dN] | 3.3% | -1.1% | 
